Laboratory results published in US20130097729A1.

Biological target: whole pea aphid BBMV proteins
Assay: pull-down with whole pea aphid BBMV, anti-GFP western blot, ImageJ band intensities

fold increase in BBMV binding efficiency against GBP3.1-EGFP: 5 fold
Substance: GBP3.1(R8A)EGFP (peptide)
